Results reported in patent US20260217835A1 (published 2026).

Legend:
[1] = target: the molecule itself; assay: SEC peak area ratio after coexpression of full-length heavy chain, light chain and Fc fragment
[2] = target: the molecule itself; assay: SEC peak area ratio after coexpression of full-length heavy chain, light chain and Fc fragment (1:2:1) in Expi293F, Protein A purified; homodimer of the full-length heavy chain;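 note: purified antibodies separated by size-exclusion UPLC with UV detection at 215 nm, species resolved by molecular weight, mobile phase 50 mM phosphate with 300 mM NaCl at pH 7.0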
[3] = target: T1, Fc fragment below the hinge region containing no modification (SEQ ID NO: 62) (human, UniProt P01857 104-328 = IgG part); assay: SEC peak area ratio after coexpression of full-length heavy chain, light chain and Fc fragment (1:2:1) in Expi293F, Protein A purified; heterodimer of full-length heavy chain with Fc fragment;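 note: purified antibodies separated by size exclusion chromatography on a UPLC system, detected by UV absorbance at 215 nm, heteromultimer given as share of chromatogram peak area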
T1 construct: Unmodified human IgG1 Fc fragment, coexpressed with a full-length heavy chain and the light chain; It pairs with itself (homo Fc fragment) or with the full-length heavy chain (heteromultimer); also called WT-Fc fragment; Sample No. 62

| Binder | Homo full-length heavy chain (%) [1] | Homo full-length heavy chain (%) [2] | Heteromultimer (%) [3] |
| --- | --- | --- | --- |
| IgG4 full-length heavy chain with K392L/T394W/F405A/Y407V (SEQ ID NO: 96) with light chain SEQ ID NO: 61 (antibody) heavy: QVQLQESGPGLVRPSQTLSLTCTVSGYSITSDHAWSWVRQPPGRGLEWIGYISYSGITTYNPSLKSRVTMLRDTSKNQFSLRLSSVTAADTAVYYCARSLARTTAMDYWGQGSLVTVSSASTKGPSVFPLAPCSRSTSESTAALGCLVKDYFPEPVTVSWNSGALTSGVHTFPAVLQSSGLYSLSSVVTVPSSSLGTKTYTCNVDHKPSNTKVDKRVESKYGPPCPPCPAPEFLGGPSVFLFPPKPKDTLMISRTPEVTCVVVDVSQEDPEVQFNWYVDGVEVHNAKTKPREEQFNSTYRVVSVLTVLHQDWLNGKEYKCKVSNKGLPSSIEKTISKAKGQPREPQVYTLPPSQEEMTKNQVSLTCLVKGFYPSDIAVEWESNGQPENNYLTWPPVLDSDGSFALVSRLTVDKSRWQEGNVFSCSVMHEALHNHYTQKSLSLSL light: not shown | 66.2% |  |  |
| IgG4 full-length heavy chain with K392D/D399K/R409D (SEQ ID NO: 97) with light chain SEQ ID NO: 61 (antibody, also called Sample No. 193 full-length heavy chain) heavy: QVQLQESGPGLVRPSQTLSLTCTVSGYSITSDHAWSWVRQPPGRGLEWIGYISYSGITTYNPSLKSRVTMLRDTSKNQFSLRLSSVTAADTAVYYCARSLARTTAMDYWGQGSLVTVSSASTKGPSVFPLAPCSRSTSESTAALGCLVKDYFPEPVTVSWNSGALTSGVHTFPAVLQSSGLYSLSSVVTVPSSSLGTKTYTCNVDHKPSNTKVDKRVESKYGPPCPPCPAPEFLGGPSVFLFPPKPKDTLMISRTPEVTCVVVDVSQEDPEVQFNWYVDGVEVHNAKTKPREEQFNSTYRVVSVLTVLHQDWLNGKEYKCKVSNKGLPSSIEKTISKAKGQPREPQVYTLPPSQEEMTKNQVSLTCLVKGFYPSDIAVEWESNGQPENNYDTTPPVLKSDGSFFLYSDLTVDKSRWQEGNVFSCSVMHEALHNHYTQKSLSLSL light: not shown | 64.5% |  |  |
| Full-length heavy chain with Y349C/L351C/S354C/E357C (SEQ ID NO: 43) with light chain SEQ ID NO: 61 (antibody, human IgG1, kappa, also called Sample No. 43) heavy: QVQLQESGPGLVRPSQTLSLTCTVSGYSITSDHAWSWVRQPPGRGLEWIGYISYSGITTYNPSLKSRVTMLRDTSKNQFSLRLSSVTAADTAVYYCARSLARTTAMDYWGQGSLVTVSSASTKGPSVFPLAPSSKSTSGGTAALGCLVKDYFPEPVTVSWNSGALTSGVHTFPAVLQSSGLYSLSSVVTVPSSSLGTQTYICNVNHKPSNTKVDKRVEPKSCDKTHTCPPCPAPELLGGPSVFLFPPKPKDTLMISRTPEVTCVVVDVSHEDPEVKFNWYVDGVEVHNAKTKPREEQYNSTYRVVSVLTVLHQDWLNGKEYKCKVSNKALPAPIEKTISKAKGQPREPQVCTCPPCRECMTKNQVSLTCLVKGFYPSDIAVEWESNGQPENNYKTTPPVLDSDGSFFLYSKLTVDKSRWQQGNVFSCSVMHEALHNHYTQKSLSLSP light: not shown |  | 40.2% | 22.7% |
| IgG1 full-length heavy chain with E345R/K360E/D399M/Y407A/K409V (SEQ ID NO: 58) with light chain SEQ ID NO: 61 (antibody) heavy: QVQLQESGPGLVRPSQTLSLTCTVSGYSITSDHAWSWVRQPPGRGLEWIGYISYSGITTYNPSLKSRVTMLRDTSKNQFSLRLSSVTAADTAVYYCARSLARTTAMDYWGQGSLVTVSSASTKGPSVFPLAPSSKSTSGGTAALGCLVKDYFPEPVTVSWNSGALTSGVHTFPAVLQSSGLYSLSSVVTVPSSSLGTQTYICNVNHKPSNTKVDKRVEPKSCDKTHTCPPCPAPELLGGPSVFLFPPKPKDTLMISRTPEVTCVVVDVSHEDPEVKFNWYVDGVEVHNAKTKPREEQYNSTYRVVSVLTVLHQDWLNGKEYKCKVSNKALPAPIEKTISKAKGQPRRPQVYTLPPSREEMTENQVSLTCLVKGFYPSDIAVEWESNGQPENNYKTTPPVLMSDGSFFLASVLTVDKSRWQQGNVFSCSVMHEALHNHYTQKSLSLSP light: not shown | 70.3% |  |  |
| IgG1 full-length heavy chain with E356K/K392D/D399K/K409D (SEQ ID NO: 56) with light chain SEQ ID NO: 61 (antibody) heavy: QVQLQESGPGLVRPSQTLSLTCTVSGYSITSDHAWSWVRQPPGRGLEWIGYISYSGITTYNPSLKSRVTMLRDTSKNQFSLRLSSVTAADTAVYYCARSLARTTAMDYWGQGSLVTVSSASTKGPSVFPLAPSSKSTSGGTAALGCLVKDYFPEPVTVSWNSGALTSGVHTFPAVLQSSGLYSLSSVVTVPSSSLGTQTYICNVNHKPSNTKVDKRVEPKSCDKTHTCPPCPAPELLGGPSVFLFPPKPKDTLMISRTPEVTCVVVDVSHEDPEVKFNWYVDGVEVHNAKTKPREEQYNSTYRVVSVLTVLHQDWLNGKEYKCKVSNKALPAPIEKTISKAKGQPREPQVYTLPPSRKEMTKNQVSLTCLVKGFYPSDIAVEWESNGQPENNYDTTPPVLKSDGSFFLYSDLTVDKSRWQQGNVFSCSVMHEALHNHYTQKSLSLSP light: not shown | 70.7% |  |  |
| IgG1 full-length heavy chain with E345R/Q347R/K360D/T366V/D399M/Y407A/K409V (SEQ ID NO: 55) with light chain SEQ ID NO: 61 (antibody) heavy: QVQLQESGPGLVRPSQTLSLTCTVSGYSITSDHAWSWVRQPPGRGLEWIGYISYSGITTYNPSLKSRVTMLRDTSKNQFSLRLSSVTAADTAVYYCARSLARTTAMDYWGQGSLVTVSSASTKGPSVFPLAPSSKSTSGGTAALGCLVKDYFPEPVTVSWNSGALTSGVHTFPAVLQSSGLYSLSSVVTVPSSSLGTQTYICNVNHKPSNTKVDKRVEPKSCDKTHTCPPCPAPELLGGPSVFLFPPKPKDTLMISRTPEVTCVVVDVSHEDPEVKFNWYVDGVEVHNAKTKPREEQYNSTYRVVSVLTVLHQDWLNGKEYKCKVSNKALPAPIEKTISKAKGQPRRPRVYTLPPSREEMTDNQVSLVCLVKGFYPSDIAVEWESNGQPENNYKTTPPVLMSDGSFFLASVLTVDKSRWQQGNVFSCSVMHEALHNHYTQKSLSLSP light: not shown | 70.7% |  |  |
| Full-length heavy chain with Y349T/S364H/T394F/F405A (SEQ ID NO: 32) with light chain SEQ ID NO: 61 (antibody, human IgG1, kappa, also called Sample No. 32) heavy: QVQLQESGPGLVRPSQTLSLTCTVSGYSITSDHAWSWVRQPPGRGLEWIGYISYSGITTYNPSLKSRVTMLRDTSKNQFSLRLSSVTAADTAVYYCARSLARTTAMDYWGQGSLVTVSSASTKGPSVFPLAPSSKSTSGGTAALGCLVKDYFPEPVTVSWNSGALTSGVHTFPAVLQSSGLYSLSSVVTVPSSSLGTQTYICNVNHKPSNTKVDKRVEPKSCDKTHTCPPCPAPELLGGPSVFLFPPKPKDTLMISRTPEVTCVVVDVSHEDPEVKFNWYVDGVEVHNAKTKPREEQYNSTYRVVSVLTVLHQDWLNGKEYKCKVSNKALPAPIEKTISKAKGQPREPQVTTLPPSREEMTKNQVHLTCLVKGFYPSDIAVEWESNGQPENNYKTFPPVLDSDGSFALYSKLTVDKSRWQQGNVFSCSVMHEALHNHYTQKSLSLSP light: not shown |  | 30.7% | 26.5% |
| IgG1 full-length heavy chain with E356K/D399K/K409E/K439E (SEQ ID NO: 36) with light chain SEQ ID NO: 61 (antibody) heavy: QVQLQESGPGLVRPSQTLSLTCTVSGYSITSDHAWSWVRQPPGRGLEWIGYISYSGITTYNPSLKSRVTMLRDTSKNQFSLRLSSVTAADTAVYYCARSLARTTAMDYWGQGSLVTVSSASTKGPSVFPLAPSSKSTSGGTAALGCLVKDYFPEPVTVSWNSGALTSGVHTFPAVLQSSGLYSLSSVVTVPSSSLGTQTYICNVNHKPSNTKVDKRVEPKSCDKTHTCPPCPAPELLGGPSVFLFPPKPKDTLMISRTPEVTCVVVDVSHEDPEVKFNWYVDGVEVHNAKTKPREEQYNSTYRVVSVLTVLHQDWLNGKEYKCKVSNKALPAPIEKTISKAKGQPREPQVYTLPPSRKEMTKNQVSLTCLVKGFYPSDIAVEWESNGQPENNYKTTPPVLKSDGSFFLYSELTVDKSRWQQGNVFSCSVMHEALHNHYTQESLSLSP light: not shown | 73.3% |  |  |
| IgG1 full-length heavy chain with E356K/K392D/D399K/K439E (SEQ ID NO: 48) with light chain SEQ ID NO: 61 (antibody) heavy: QVQLQESGPGLVRPSQTLSLTCTVSGYSITSDHAWSWVRQPPGRGLEWIGYISYSGITTYNPSLKSRVTMLRDTSKNQFSLRLSSVTAADTAVYYCARSLARTTAMDYWGQGSLVTVSSASTKGPSVFPLAPSSKSTSGGTAALGCLVKDYFPEPVTVSWNSGALTSGVHTFPAVLQSSGLYSLSSVVTVPSSSLGTQTYICNVNHKPSNTKVDKRVEPKSCDKTHTCPPCPAPELLGGPSVFLFPPKPKDTLMISRTPEVTCVVVDVSHEDPEVKFNWYVDGVEVHNAKTKPREEQYNSTYRVVSVLTVLHQDWLNGKEYKCKVSNKALPAPIEKTISKAKGQPREPQVYTLPPSRKEMTKNQVSLTCLVKGFYPSDIAVEWESNGQPENNYDTTPPVLKSDGSFFLYSKLTVDKSRWQQGNVFSCSVMHEALHNHYTQESLSLSP light: not shown | 69.6% |  |  |
